Assay results from patent publication US20260242478A1 (published 2026).
Where no end group is shown, it is not given here.

Assays:
[1] = target: Anti-CD28 Fab (SEQ ID NOs: 696, 697); assay: phage binding ELISA; biotinylated anti-CD28 Fab on neutravidin plate, clonal phage detected with anti-M13 HRP
Target sequence in this assay (VH, as listed by the source, chain 1 of 2): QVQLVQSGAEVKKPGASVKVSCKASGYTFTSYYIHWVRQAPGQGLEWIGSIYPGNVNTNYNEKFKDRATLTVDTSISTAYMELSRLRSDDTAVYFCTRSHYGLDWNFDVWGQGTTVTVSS
Target sequence in this assay (VL, as listed by the source, chain 2 of 2): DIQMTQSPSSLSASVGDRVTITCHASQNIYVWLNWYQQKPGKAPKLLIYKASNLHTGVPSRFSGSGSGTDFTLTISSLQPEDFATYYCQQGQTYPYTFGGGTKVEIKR
Protocol: (§1) Clonal phage were harvested as crude supematants and screened via standard ELISAs. […] Prior to the addition of clonal phage, wells were incubated with blocking buffer and CD28 antigen or blocking buffer alone. Without washing or aspirating, clonal phage supematants were then added to the wells and incubated for a short time. Wells were then washed followed by detection of bound phage using a horse radish conjugated anti-M13 antibody.

[2] = target: Anti-CD28 Fab (SEQ ID NOs: 696, 697); assay: phage binding ELISA; anti-CD28 Fab on plate pre-incubated with CD28 antigen as competitor
Target sequence in this assay (VH, as listed by the source, chain 1 of 2): as the sequence (VH, as listed by the source, chain 1 of 2) above
Target sequence in this assay (VL, as listed by the source, chain 2 of 2): as the sequence (VL, as listed by the source, chain 2 of 2) above
Protocol: as §1

[3] = target: T1, Anti-CD28 Fab (SEQ ID NOs: 696, 697); assay: phage ELISA; biotinylated anti-CD28 Fab on neutravidin plate, clonal phage supernatant, anti-M13 HRP detection;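 also: before phage addition, wells were pretreated with either CD28 antigen in blocking buffer or only blocking buffer, and phage was added without an intervening wash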
T1 construct: In the phage ELISA the Fab was biotinylated and captured on neutravidin coated plates
T1 sequence (VH, as listed by the source, chain 1 of 2): as the sequence (VH, as listed by the source, chain 1 of 2) above
T1 sequence (VL, as listed by the source, chain 2 of 2): as the sequence (VL, as listed by the source, chain 2 of 2) above
Protocol: as §1

[4] = target: T1, Anti-CD28 Fab (SEQ ID NOs: 696, 697); assay: phage ELISA; Fab-coated wells pre-incubated with CD28 antigen as competitor, clonal phage supernatant, anti-M13 HRP detection
Protocol: as §1

[5] = target: Anti-CD28 Fab (SEQ ID NOs: 696, 697); assay: phage binding ELISA; Fab-coated wells pre-incubated with CD28 antigen as competitor, anti-M13 HRP detection;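 also: crude clonal phage supernatants added without washing after the CD28 pre-incubation, with wells given blocking buffer only (no CD28) as the reference, bound phage read after washing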
Target sequence in this assay (VH, as listed by the source, chain 1 of 2): as the sequence (VH, as listed by the source, chain 1 of 2) above
Target sequence in this assay (VL, as listed by the source, chain 2 of 2): as the sequence (VL, as listed by the source, chain 2 of 2) above
Protocol: Clonal phage were harvested as crude supematants and screened via standard ELISAs. […] Prior to the addition of clonal phage, wells were incubated with blocking buffer and CD28 antigen or blocking buffer alone. Without washing or aspirating, clonal phage supematants were then added to the wells and incubated for a short time. Wells were then washed followed by detection of bound phage using a horse radish conjugated anti-M13 antibody. Clonal phage of interest were then sent for sequence analysis.

[6] = target: Anti-CD28 Fab (SEQ ID NOs: 696, 697); assay: phage binding ELISA; biotinylated anti-CD28 Fab on neutravidin plate, clonal phage supernatant, anti-M13 HRP detection;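 also: wells pretreated with blocking buffer, either plus or minus CD28 antigen, then given crude phage supernatant briefly without washing in between, then washed before anti-M13 HRP readout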
Target sequence in this assay (VH, as listed by the source, chain 1 of 2): as the sequence (VH, as listed by the source, chain 1 of 2) above
Target sequence in this assay (VL, as listed by the source, chain 2 of 2): as the sequence (VL, as listed by the source, chain 2 of 2) above
Protocol: as §1

[7] = target: T2, Anti-CD28 Fab (SEQ ID NOs: 696, 697); assay: phage binding ELISA; clonal phage on biotinylated anti-CD28 Fab captured on neutravidin, anti-M13-HRP detection
T2 construct: Biotinylated and captured on neutravidin coated plates in the phage ELISA
T2 sequence (VH, as listed by the source, chain 1 of 2): as the sequence (VH, as listed by the source, chain 1 of 2) above
T2 sequence (VL, as listed by the source, chain 2 of 2): as the sequence (VL, as listed by the source, chain 2 of 2) above
Protocol: as §1

[8] = target: T2, Anti-CD28 Fab (SEQ ID NOs: 696, 697); assay: phage binding ELISA on captured anti-CD28 Fab; competitor CD28 antigen pre-incubated in the wells
Protocol: as §1

Binder | Anti-CD28 Fab (SEQ ID NOs: 696, 697) signal [1] | Anti-CD28 Fab signal in the presence of CD28 [2] | Phage binding ELISA, Anti-CD28 Fab signal [3] | Phage binding ELISA, Anti-CD28 Fab signal in the presence of CD28 [4] | further results
LCTAGLAYNWPTCL [Phage-1471 peptide (Peptide-92 library, SEQ ID NO: 1767)] | 1.77 | 0.05 |  |  | 
TCSAGAHFAWPMCF (Tested as clonal phage supernatant; not shown: fused to pIII of the bacteriophage) [Phage-1492 (Peptide-92 library clone, SEQ ID NO: 1788)] |  |  | 1.69 | 0.07 | 
MCSAGANYPWPWCL [Phage-1426] |  |  |  |  | Anti-CD28 Fab signal in the presence of CD28 [5]: 0.08; Anti-CD28 Fab (SEQ ID NOs: 696, 697) signal [6]: 1.97
SCSAVFSYAWPTCL (peptide, not shown: large carriers) [Phage-1511] |  |  |  |  | Anti-CD28 Fab (SEQ ID NOs: 696, 697) signal [7]: 1.61; Anti-CD28 Fab signal in the presence of CD28 [8]: 0.08
TCSAGATYEWPWCM [Phage-1425] |  |  |  |  | Anti-CD28 Fab signal in the presence of CD28 [5]: 0.07; Anti-CD28 Fab (SEQ ID NOs: 696, 697) signal [6]: 1.97
LCSAGAMYQWPTCL (peptide, not shown: large carriers) [Phage-1508] |  |  |  |  | Anti-CD28 Fab (SEQ ID NOs: 696, 697) signal [7]: 1.63; Anti-CD28 Fab signal in the presence of CD28 [8]: 0.06
TCAAGATYEWPTCL [Phage-1430] |  |  |  |  | Anti-CD28 Fab signal in the presence of CD28 [5]: 0.08; Anti-CD28 Fab (SEQ ID NOs: 696, 697) signal [6]: 1.96
LCSAGAMYPWPLCY (Tested as clonal phage supernatant; not shown: fused to pIII of the bacteriophage) [Phage-1498 (Peptide-92 library clone, SEQ ID NO: 1794)] |  |  | 1.66 | 0.08 | 
RCAAGVMYDWPVCL (Tested as clonal phage supernatant; not shown: fused to pIII of the bacteriophage) [Phage-1490 (Peptide-92 library clone, SEQ ID NO: 1786)] |  |  | 1.7 | 0.07 | 
TCSAGASYPWPVCL (Tested as clonal phage supernatant; not shown: fused to pIII of the bacteriophage) [Phage-1495 (Peptide-92 library clone, SEQ ID NO: 1791)] |  |  | 1.67 | 0.07 | 
WCAEFFNYHWPLCF [Phage-1468 peptide (Peptide-92 library, SEQ ID NO: 1764)] | 1.77 | 0.06 |  |  | 
TCAAGANYPWPLCL [Phage-1474 peptide (Peptide-92 library, SEQ ID NO: 1770)] | 1.75 | 0.08 |  |  | 
WCAAVFSYTWSPCL [Phage-1428] |  |  |  |  | Anti-CD28 Fab signal in the presence of CD28 [5]: 0.07; Anti-CD28 Fab (SEQ ID NOs: 696, 697) signal [6]: 1.96
WCTAGFSYKLSICL (peptide, not shown: large carriers) [Phage-1507] |  |  |  |  | Anti-CD28 Fab (SEQ ID NOs: 696, 697) signal [7]: 1.63; Anti-CD28 Fab signal in the presence of CD28 [8]: 0.06
LCKPGVPYQWPTCL [Phage-1465 peptide (Peptide-92 library, SEQ ID NO: 1761)] | 1.78 | 0.07 |  |  | 
DCWGDAPYPWRVCL (peptide, not shown: large carriers) [Phage-1506] |  |  |  |  | Anti-CD28 Fab (SEQ ID NOs: 696, 697) signal [7]: 1.64; Anti-CD28 Fab signal in the presence of CD28 [8]: 0.07
TCAAGASYQWPLCF [Phage-1462 peptide (Peptide-92 library, SEQ ID NO: 1758)] | 1.79 | 0.07 |  |  | 
TCAAGAHYEWPMCY (peptide, not shown: large carriers) [Phage-1510] |  |  |  |  | Anti-CD28 Fab (SEQ ID NOs: 696, 697) signal [7]: 1.61; Anti-CD28 Fab signal in the presence of CD28 [8]: 0.12
MCTAGALYNWPTCL [Phage-1466 peptide (Peptide-92 library, SEQ ID NO: 1762)] | 1.78 | 0.09 |  |  | 
LCAEFFNYPWPLCL [Phage-1422] |  |  |  |  | Anti-CD28 Fab signal in the presence of CD28 [5]: 0.06; Anti-CD28 Fab (SEQ ID NOs: 696, 697) signal [6]: 1.98
TCAAGAAYTWPACF [Phage-1429] |  |  |  |  | Anti-CD28 Fab signal in the presence of CD28 [5]: 0.06; Anti-CD28 Fab (SEQ ID NOs: 696, 697) signal [6]: 1.96
SCAAGLSYPWPDCL (Tested as clonal phage supernatant; not shown: fused to pIII of the bacteriophage) [Phage-1502 (Peptide-92 library clone, SEQ ID NO: 1798)] |  |  | 1.65 | 0.07 | 
GCAAGAHYPWPFCL [Phage-1472 peptide (Peptide-92 library, SEQ ID NO: 1768)] | 1.76 | 0.06 |  |  | 

Binder | Anti-CD28 Fab (SEQ ID NOs: 696, 697) signal [1] | Anti-CD28 Fab signal in the presence of CD28 [2] | Phage binding ELISA, Anti-CD28 Fab signal [3] | Phage binding ELISA, Anti-CD28 Fab signal in the presence of CD28 [4] | further results
LCAAGANYPWPACL (Tested as clonal phage supernatant; not shown: fused to pIII of the bacteriophage) [Phage-1500 (Peptide-92 library clone, SEQ ID NO: 1796)] |  |  | 1.66 | 0.07 | 
SCAAGAHYVWPFCF (Tested as clonal phage supernatant; not shown: fused to pIII of the bacteriophage) [Phage-1493 (Peptide-92 library clone, SEQ ID NO: 1789)] |  |  | 1.68 | 0.08 | 
TCAAGAMWVWPTCL (Tested as clonal phage supernatant; not shown: fused to pIII of the bacteriophage) [Phage-1499 (Peptide-92 library clone, SEQ ID NO: 1795)] |  |  | 1.66 | 0.07 | 
TCSAGANYEWPWCF (peptide, not shown: large carriers) [Phage-1509] |  |  |  |  | Anti-CD28 Fab (SEQ ID NOs: 696, 697) signal [7]: 1.62; Anti-CD28 Fab signal in the presence of CD28 [8]: 0.06
SCSAGFHYPWPICL [Phage-1464 peptide (Peptide-92 library, SEQ ID NO: 1760)] | 1.79 | 0.07 |  |  | 
TCAAGATYEWPYCF [Phage-1427] |  |  |  |  | Anti-CD28 Fab signal in the presence of CD28 [5]: 0.06; Anti-CD28 Fab (SEQ ID NOs: 696, 697) signal [6]: 1.96
TCAAGAGWAWPFCF (Tested as clonal phage supernatant; not shown: fused to pIII of the bacteriophage) [Phage-1503 (Peptide-92 library clone, SEQ ID NO: 1799)] |  |  | 1.65 | 0.09 | 
YCSAGAQWPWPICL [Phage-1461 peptide (Peptide-92 library, SEQ ID NO: 1757)] | 1.79 | 0.08 |  |  | 
TCAAGAHYPWPYCL [Phage-1467 peptide (Peptide-92 library, SEQ ID NO: 1763)] | 1.77 | 0.05 |  |  | 
WCAAGAMYPWPLCL (Tested as clonal phage supernatant; not shown: fused to pIII of the bacteriophage) [Phage-1496 (Peptide-92 library clone, SEQ ID NO: 1792)] |  |  | 1.67 | 0.06 | 
TCSAGATYNWPWCF (Tested as clonal phage supernatant; not shown: fused to pIII of the bacteriophage) [Phage-1494 (Peptide-92 library clone, SEQ ID NO: 1790)] |  |  | 1.68 | 0.05 | 
SCAAGATYTWPMCI (Tested as clonal phage supernatant; not shown: fused to pIII of the bacteriophage) [Phage-1501 (Peptide-92 library clone, SEQ ID NO: 1797)] |  |  | 1.66 | 0.07 | 
LCNAGAPYKWPTCL (Tested as clonal phage supernatant; not shown: fused to pIII of the bacteriophage) [Phage-1497 (Peptide-92 library clone, SEQ ID NO: 1793)] |  |  | 1.66 | 0.07 | 
SCAAGASYSWPACF [Phage-1463 peptide (Peptide-92 library, SEQ ID NO: 1759)] | 1.79 | 0.07 |  |  | 
TCSAGAHWTWPLCF (Tested as clonal phage supernatant; not shown: fused to pIII of the bacteriophage) [Phage-1491 (Peptide-92 library clone, SEQ ID NO: 1787)] |  |  | 1.69 | 0.06 | 
MCAAGAHYTWPTCL (cysteine pairing not given here; also: fused to phage pIII protein) [Phage-1424] |  |  |  |  | Anti-CD28 Fab signal in the presence of CD28 [5]: 0.07; Anti-CD28 Fab (SEQ ID NOs: 696, 697) signal [6]: 1.97
SCAAGASYPWPQCL [Phage-1470 peptide (Peptide-92 library, SEQ ID NO: 1766)] | 1.77 | 0.11 |  |  | 
LCSAGATYPWPWCM (peptide, not shown: large carriers) [Phage-1505] |  |  |  |  | Anti-CD28 Fab (SEQ ID NOs: 696, 697) signal [7]: 1.64; Anti-CD28 Fab signal in the presence of CD28 [8]: 0.06
TCSAGFSLQLSICL [Phage-1469 peptide (Peptide-92 library, SEQ ID NO: 1765)] | 1.77 | 0.06 |  |  | 
TCAAGAVWEWPMCF [Phage-1473 peptide (Peptide-92 library, SEQ ID NO: 1769)] | 1.76 | 0.07 |  |  | 
MCSAGATYPWPYCL (peptide, not shown: large carriers) [Phage-1504] |  |  |  |  | Anti-CD28 Fab (SEQ ID NOs: 696, 697) signal [7]: 1.64; Anti-CD28 Fab signal in the presence of CD28 [8]: 0.1
QCSAGAAWPWPFCL [Phage-1423] |  |  |  |  | Anti-CD28 Fab signal in the presence of CD28 [5]: 0.08; Anti-CD28 Fab (SEQ ID NOs: 696, 697) signal [6]: 1.97
